From patent publication US10000771B2, “Nuclear targeting sequences” (Yeda Research and Development Co. Ltd., priority 2007, dated 2018)

Assays:
[1] = test system: SPS domain; experiment: SPS phosphorylation detected by anti pSPS Ab Western blot; assay type: cell-based; conditions: COS7 cells, stimulated with VOOH, TPA, EGF or TGFβ, immunoprecipitation and Western blot
Procedure: FIGS. 4A-4I are autoradiographs characterizing SPS phosphorylation using an Ab to the phosphorylated SPS domain. FIG. 4A illustrates an elevation of pSPS detection upon stimulation. COS cells were transfected with WT-GFP-ERK2. Twenty-four hr after transfection, the cells were serum-starved for 16 hr and subsequently treated with the general stimulator VOOH (V, 100 μM Na3VO4 and 200 μM H2O2, 15 min), TPA (T, 250 nM, 15 min), EGF (E, 50 ng/ml for 15 min), or left untreated (NT). The GFP-ERK2 was immunoprecipitated with anti GFP Ab, extensively washed, and the IP was then subjected to Western blotting with anti phospho SPS-ERK (αphoSPS-ERK) and anti general ERK (αgen-ERK) Abs. FIG. 4B is a time course of SPS phosphorylation. COS7 cells overexpressing WT-GFP-ERK2 were serum starved followed by EGF stimulation for the indicated time points. The lysates were then subjected to Western blot analysis as in FIG. 4A. […] SPS phosphorylation was detected using the anti pSPS Abs, and this was compared to the amount of genral ERKs detected by αgERK. […] SPS-phosphorylation was detected using αpSPS and αgERK Abs. […] The phosphorylation (^32P-ERK2) of ERK and its mutants was detected by autoradiography. […]
FIG. 9B is an autoradiograph illustrating that stimulation elevates pSPS phosphorylation of 2GFP-SPS construct. […] The total amount of immunoprecipitated 2GFP-SPS was detected with αGFP Ab. […]

[2] = test system: CHO cells; experiment: Microscopy of SMAD3 and MH2 constructs (subcellular localization); assay type: cell-based; conditions: overexpressed in CHO cells, fluorescence microscopy
From the text: FIGS. 11A-11D are photomicrographs illustrating that mutation of SPS prevents the nuclear translocation of full length SMAD3. CHO cells overexpressing either Flag-SMAD3 (SMAD3) or its AAA mutant (AAA-SMAD3) were fixed and stained both with anti Flag Ab and DAPI.
FIGS. 12A-12F are photomicrographs illustrating that mutants of the SPS domain modulate the subcellular translocation of the MH2 region of SMAD3. CHO cells overexpressing MH2 domain of SMAD3 (WT-MH2), or the AAA (AAA-MH2) and DPD mutant (MH2-DPD) were fixed and visualized under florescent microscope.
Immunofluorescence Microscopy. Cells were fixed (30 min in 3% paraformaldehyde in PBS or 10 min with ice-cold methanol), followed by 5-min permeabilization with 0.2% Triton X-100 in PBS (23° C.). The fixed cells were sequentially incubated with the appropriate Abs (45 min) followed by rhodamine-conjugated secondary Abs (45 min) and DAPI. Slides were visualized using a fluorescence microscope (Nikon, Japan) at 400× magnifications.
Therefore, it seems likely that the SPS of SMAD3 operated similarly to that of ERK2. To examine whether this SPS of SMAD3 is involved in nuclear translocation WT-Flag-SMAD3 and a Flag-SMAD3 in which the SPS domain was replaced with three Ala residues (AAA-SMAD3) were overexpressed in CHO cells and their localization examined.

B1: WT-Flag-SMAD3: full length FLAG-SMAD3 (protein)
chain: MSSILPFTPPIVKRLLGWKKGEQNGQEEKWCEKAVKSLVKKLKKTGQLDELEKAITTQNVNTKCITIPRSLDGRLQVSHRKGLPHVIYCRLWRWPDLHSHHELRAMELCEFAFNMKKDEVCVNPYHYQRVETPVLPPVLVPRHTEIPAEFPPLDDYSHSIPENTNFPAGIEPQSNIPETPPPGYLSEDGETSDHQMNHSMDAGSPNLSPNPMSPAHNNLDLQPVTYCEPAFWCSISYYELNQRVGETFHASQPSMTVDGFTDPSNSERFCLGLLSNVNRNAAVELTRRHIGRGVRLYYIGGEVFAECLSDSAIFVQSPNCNQRYGWHPATVCKIPPGCNLKIFNNQEFAALLAQSVNQGFEAVYQLTRMCTIRMSFVKGWGAEYRRQTVTSTPCWIELHLNGPLQWLDKVLTQMGSPSIRCSSVS
modifications: left off: small tags and cut ends
Which “SPS phosphorylation upon stimulation (anti pSPS Ab recognition)” value [1] does the source give for B1 here?
The value was “phosphorylated on its SPS domain”.

What about the subcellular localization [2] of the same molecule?
The subcellular localization was “nuclear localization”.
